Data from patent US20160362672.

T1: soluble tissue factor (sTF), P13726
T1 chain: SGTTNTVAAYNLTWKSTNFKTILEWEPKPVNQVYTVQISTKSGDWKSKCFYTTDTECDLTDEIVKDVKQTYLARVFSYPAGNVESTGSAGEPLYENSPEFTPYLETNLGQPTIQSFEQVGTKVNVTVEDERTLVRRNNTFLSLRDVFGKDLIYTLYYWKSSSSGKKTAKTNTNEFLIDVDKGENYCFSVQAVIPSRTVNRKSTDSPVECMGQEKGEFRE

B1: FVIIa-AE288 (protein)
chain: AVFVTQEEAHGVLHRRRRANAFLEELRPGSLERECKEEQCSFEEAREIFKDAERTKLFWISYSDGDQCASSPCQNGGSCKDQLQSYICFCLPAFEGRNCETHKDDQLICVNENGGCEQYCSDHTGTKRSCRCHEGYSLLADGVSCTPTVEYPCGKIPILEKRNASKPQGRIVGGKVCPKGECPWQVLLLVNGAQLCGGTLINTIWVVSAAHCFDKIKNWRNLIAVLGEHDLSEHDGDEQSRRVAQVIIPSTYVPGTTNHDIALLRLHQPVVLTDHVVPLCLPERTFSERTLAFVRFSLVSGWGQLLDRGATALELMVLNVPRLMTQDCLQQSRKVGDSPNITEYMFCAGYSDGSKDSCKGDSGGPHATHYRGTWYLTGIVSWGQGCATVGHFGVYTRVSQYIEWLQKLMRSEPRPGVLLRAPFPGSPGTSESATPESGPGSEPATSGSETPGTSESATPESGPGSEPATSGSETPGTSESATPESGPGTSTEPSEGSAPGSPAGSPTSTEEGTSESATPESGPGSEPATSGSETPGTSESATPESGPGSPAGSPTSTEEGSPAGSPTSTEEGTSTEPSEGSAPGTSESATPESGPGTSESATPESGPGTSESATPESGPGSEPATSGSETPGSEPATSGSETPGSPAGSPTSTEEGTSTEPSEGSAPGTSTEPSEGSAPGSEPATSGSETPGTSESATPESGPGTSTEPSEGSAPGSSS

How the values were obtained:
[1] = target: T1, soluble tissue factor (sTF), P13726

Molecule	Concentration by Activity (ng/ml), aPTT based factor assay (FIX-DFTRVVG-XTEN_AE864) [ng/mL]	Fraction Active (FIX-DFTRVVG-XTEN_AE864) [%]	enhancement of clotting activity against FIX-XTEN without a cleavage site (aPTT based factor assay) (FIX-DFTRVVG-XTEN_AE864)	Concentration by Activity (ng/ml), aPTT based factor assay (FIX-/FXI/-XTEN_AE864) [ng/mL]	Fraction Active (FIX-/FXI/-XTEN_AE864) [%]	enhancement of clotting activity against FIX-XTEN without a cleavage site (aPTT based factor assay) (FIX-/FXI/-XTEN_AE864)	Concentration by Activity (ng/ml), aPTT based factor assay (FIX-KLTRAET-XTEN_AE864) [ng/mL]	Fraction Active (FIX-KLTRAET-XTEN_AE864) [%]	enhancement of clotting activity against FIX-XTEN without a cleavage site (aPTT based factor assay) (FIX-KLTRAET-XTEN_AE864)	FVIIa activity by soluble tissue factor (sTF) induced clotting (Stago STA-Clot FVIIa activity assay kit) [1]
FXI protease (activated factor XI, FXIa)	9	34	In all three cases the presence of a FXI cleavage site enhanced the clotting activity by greater than 30-fold	11	40	In all three cases the presence of a FXI cleavage site enhanced the clotting activity by greater than 30-fold	7	30	In all three cases the presence of a FXI cleavage site enhanced the clotting activity by greater than 30-fold	–
B1	–	–	–	–	–	–	–	–	–	an activity equivalent to 112 U/ml of FVIIa activity
